The target in this data set is Vaccinia DNA topoisomerase I (Vaccinia virus, UniProt P68698 P68698:1-314). Nature of the data set: covalent charging of vector at CCCTT, 37 C 15 min, NEB buffer 1; charged vector cloned the test insert with 93.6-95.1% efficiency. To be noted: ligated to EcoRI-cut pCR8/GW ends. How it is done:
TOPO charging. To 5 μg of ligated DNA, 3 μg of TOPO-5 oligonucleotide (5'-CAACA CTATC GGAAT A-3' (SEQ ID NO: 66), phosphorylated on the 5' end), 10 μl 5× NEB #1 (New England Biolabs, Inc., Beverly, Mass. cat. no. M0202S), and 5 μg of Vaccinia Topoisomerase I was added and the volume adjusted to 50 μl with water. This reaction was incubated at 37° C. for 15 minutes before addition of 5 μl of 10× TOPO Stop Buffer (1 M Tris-HCl, pH 7.5, 500 mM EDTA). The TOPO adapted vector was then gel purified and quantified using the Hoechst dye assay.
Testing of TOPO cloning efficiency. TOPO cloning efficiency was determined using a 500 bp PCR fragment containing a bacterial lac promoter driving the lacZ alpha fragment, this positive control fragment is found in some of Invitrogen's TOPO T/A cloning kits, for example, cat. no. K4300-01. Cloning of this fragment generated blue colonies on X-gal plates and colonies without the cloned fragment were white. The ratio of the total number of blue colonies to the total number of colonies was representative of the efficiency of the TOPO reaction. Twenty nanograms of the Taq polymerase generated 500 bp PCR product was used per TOPO reaction.
T/A TOPO QC testing. The pCR8/GW/TOPO system was tested by TOPO cloning a Platinum taq-generated 500 bp test insert and selected ORFs into pCR8/GW/TOPO. TOPO cloning efficiency was measured using standard QC procedures. […]

B1: TOPO adapter duplex (TOPO-1/TOPO-5/TOPO-4) (dsDNA)
DNA 1: AATTCGCCCTTATTCCGATAGTG
DNA 2: CAACACTATCGGAATA
DNA 3: AGGGCG
modifications: 5'-phosphate on TOPO-5
Take B1: the binding result is given as “binds”.

The values are drawn from patent publication US8304189, “Nucleic acid molecules containing recombination sites and methods of using the same” (Life Technologies Corporation).
